Changes are numbered by the printed parent chain. Numbers in names are those of the source. Blank lines part the entries; values can stand above or below the molecule they belong to.
Legend:
[1] = target: b-PD-1 monomer (human PD-1) (human) (UniProt Q15116); test: MSD solution equilibrium titration, avid KD
cynoPD-1_Fc (cyno) = cynoPD-1_Fc (cyno) (UniProt B0LAJ3); test: BLI (ForteBio), Fab in solution, cynoPD-1_Fc on sensor tip
human PD-1 on cells [2] = target: T1, human PD-1 on cells (human, UniProt Q15116 25-288); test: flow cytometry blocking assay, 100 nM control IgG on CHO cells with human PD-1, then PD-L2-FITC (remaining ligand signal)
T1 sequence (Q15116 25-288 limits assumed): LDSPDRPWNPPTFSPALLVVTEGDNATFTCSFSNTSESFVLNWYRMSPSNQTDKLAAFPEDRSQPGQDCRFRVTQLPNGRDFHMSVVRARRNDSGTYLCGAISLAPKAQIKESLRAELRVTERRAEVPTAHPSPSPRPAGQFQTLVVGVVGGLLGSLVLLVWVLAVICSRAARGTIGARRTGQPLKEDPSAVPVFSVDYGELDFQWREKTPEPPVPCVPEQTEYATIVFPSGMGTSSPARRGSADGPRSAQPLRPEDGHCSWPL

human PD-1 on cells [3] = target: T1, human PD-1 on cells; test: flow cytometry on CHO cells with human PD-1, n=1
Protocol: Cells are then washed 3×, and are incubated with a secondary antibody (PE-labelled, at final concentration of 5 μg/ml) in PBS 1% BSA for 30 min on ice (protected from light). Cells are washed 3× and analyzed via flow cytometry. Flow cytometry is performed on an Accuri C6 system (BD Biosciences) and MFIs are calculated on the C6 software. EC50s are calculated on Graphpad software.

human PD-1 on cells [4] = target: T1, human PD-1 on cells; test: cell-based or functional assay
human PD-1 on cells [5] = target: T1, human PD-1 on cells; test: cell-based or functional assay; remark: listed apart in the source
human PD-1 on cells [6] = target: T1, human PD-1 on cells; test: flow cytometry blocking assay, 100 nM antibody on CHO cells with human PD-1, then PD-L2-FITC (remaining ligand signal)
Protocol: CHO cells 0.2×10⁶ are incubated with the experimental antibody (100 nM) for 30 min in PBS 1% BSA on ice. […] Cells are washed 3× and analyzed via flow cytometry. Flow cytometry is performed on an Accuri C6 system (BD Biosciences) and MFIs are calculated on the C6 software. EC50 s are calculated on Graphpad software.

[7] = target: T2, b-PD-1 monomer (human PD-1) (human, UniProt Q15116 25-167, limits assumed, biotinylated (b-PD-1; detected with streptavidin), site not stated); test: MSD solution equilibrium titration, monovalent KD
T2 construct: The antigen used for the avid KD is not described separately; also called antigen
T2 sequence (Q15116 25-167 limits assumed): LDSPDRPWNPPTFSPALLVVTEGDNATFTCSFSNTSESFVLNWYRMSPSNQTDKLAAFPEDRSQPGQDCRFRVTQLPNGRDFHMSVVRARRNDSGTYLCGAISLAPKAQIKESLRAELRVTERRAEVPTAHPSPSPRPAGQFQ
Protocol: (§1) Equilibrium affinity measurements are performed as previously described (Estep, P., et al., MAbs, 2013.5 (2): p. 270-8). Solution equilibrium titrations (SET) are performed in PBS+0.1% IgG-Free BSA (PBSF) where antigen (b-PD-1 monomer) is held constant at 10-100 pM and is incubated with 3-to 5-fold serial dilutions of Fab or mAbs starting at 5-100 nM (experimental condition is sample dependent). Antibodies diluted at 20 nM in PBS are coated onto standard bind MSD-ECL plates overnight at 4° C. or at room temperature for 30 min. Plates are blocked with BSA for 30 min whilst shaking at 700 rpm. Plates are then washed 3× with wash buffer (PBSF+0.05% Tween 20). SET samples are applied and incubated on the plates for 150 s with shaking at 700 rpm followed by one wash. Antigen captured on a plate is detected with 250 ng/mL sulfotag-labeled streptavidin in PBSF by incubation on the plate for 3 min. The plates are washed three times with wash buffer and are then read on the MSD Sector Imager 2400 instrument using 1× Read Buffer T with surfactant. The percent free antigen is plotted as a function of titrated antibody in Prism and fit to a quadratic equation to extract the KD. To improve throughput, liquid handling robots are used throughout MSD-SET experiments, including for SET sample preparation.

[8] = target: T2, b-PD-1 monomer (human PD-1); test: MSD solution equilibrium titration, avid KD
Protocol: as §1

human PD-1_His = target: T3, human PD-1_His (human, UniProt Q15116 25-167, limits assumed); test: BLI (ForteBio), hPD-1_HIS in solution, IgG on sensor tip
T3 construct: also called hPD-1_HIS
T3 sequence (Q15116 25-167 limits assumed): as above
Protocol: Briefly, ForteBio affinity measurements were performed by loading IgGs online onto AHQ sensors. Sensors were equilibrated off-line in assay buffer for 30 min and then monitored on-line for 60 seconds for baseline establishment. Sensors with loaded IgGs were exposed to 100 nM antigen for 5 min, afterwards they were transferred to assay buffer for 5 min for off-rate measurement. Kinetics was analyzed using the 1:1 binding model.

cynoPD-1_Fc = cynoPD-1_Fc (cyno, UniProt B0LAJ3 25-170); test: BLI (ForteBio), Fab in solution, cynoPD-1_Fc on sensor tip
Chain of cynoPD-1_Fc (B0LAJ3 entry or part of it limits assumed): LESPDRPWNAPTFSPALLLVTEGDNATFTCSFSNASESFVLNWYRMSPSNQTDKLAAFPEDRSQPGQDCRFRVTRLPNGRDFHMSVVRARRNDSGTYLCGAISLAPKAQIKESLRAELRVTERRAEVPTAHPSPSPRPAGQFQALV

human PD-1_Fc = target: T4, human PD-1_Fc (human, UniProt Q15116 25-167, limits assumed); test: BLI (ForteBio), Fab in solution, hPD-1_Fc on sensor tip
T4 construct: also called hPD-1_Fc
T4 sequence (Q15116 25-167 limits assumed): as the sequence (Q15116 25-167 limits assumed) above

Chain of cynoPD-1_Fc (cyno) (B0LAJ3 entry or part of it limits assumed): as the sequence (B0LAJ3 entry or part of it limits assumed) above
Chain of b-PD-1 monomer (human PD-1) (human) (Q15116 25-167 limits assumed): as the sequence (Q15116 25-167 limits assumed) above

Molecule: nivolumab (antibody)
Kd [1]: 5 pM

Molecule: control IgG (antibody)
MFI (PD-L2-FITC) (human PD-1 on cells [2]): 183000 MFI

Molecule: nivolumab Fab
Kd (cynoPD-1_Fc (cyno)): 1200 pM

B1: Antibody B S228P IgG4 (xd-16 B) (antibody, V domains shown)
VH: QVQLVQSGAEVKKPGSSVKVSCKASGGTFSSTAISWVRQAPGQGLEWMGGIWPSFGTASYAQKFQGRVTITADESTSTAYMELSSLRSEDTAVYYCARAEYSSTGIFDYWGQGTLVTVSS
VL: DIQMTQSPSSVSASVGDRVTITCRASQGISSWLAWYQQKPGKAPKLLISAASSLQSGVPSRFSGSGSGTDFTLTISSLQPEDFATYYCQQANHLPFTFGGGTKVEIKR
notes: also called xd-16 B (IgG4 S228P); xd-16 B IgG4
EC50 (human PD-1 on cells [3]): 1460 pM
IL-2 secretion fold change vs. IgG control, 0.01 nM IgG (human PD-1 on cells [4]): 1.15 fold
IL-2 secretion fold change vs. IgG control, 0.1 nM IgG (human PD-1 on cells [4]): 1.46 fold
IL-2 secretion fold change vs. IgG control, 1 nM IgG (human PD-1 on cells [4]): 2.18 fold
IL-2 secretion fold change vs. IgG control, 10 nM IgG (human PD-1 on cells [4]): 2.39 fold
IL-2 secretion fold change vs. IgG control, 100 nM IgG (human PD-1 on cells [4]): 2.37 fold
IFNg secretion fold change vs. IgG control, 0.01 nM IgG (human PD-1 on cells [5]): 1.09 fold
IFNg secretion fold change vs. IgG control, 0.1 nM IgG (human PD-1 on cells [5]): 1.59 fold
IFNg secretion fold change vs. IgG control, 1 nM IgG (human PD-1 on cells [5]): 2.15 fold
IFNg secretion fold change vs. IgG control, 10 nM IgG (human PD-1 on cells [5]): 2.17 fold
IFNg secretion fold change vs. IgG control, 100 nM IgG (human PD-1 on cells [5]): 1.9 fold

B2: xd-16 B, IgG1 format expressed in yeast (antibody, V domains shown)
VH: B1 VH
VL: DIQMTQSPSSVSASVGDRVTITCRASQGISSWLAWYQQKPGKAPKLLISAASSLQSGVPSRFSGSGSGTDFTLTISSLQPEDFATYYCQQANHLPFTFGGGTKVEIK
notes: Tested as IgG1 expressed in yeast; also called Antibody B
MFI (PD-L2-FITC) (human PD-1 on cells [6]): 26400 MFI
Kd [7]: 45 pM
Kd [8]: ~0.9 pM
Kd (human PD-1_His): 420 pM

B3: xd-16 B, Fab format produced from IgG1 expressed in yeast (Fab, V domains shown)
VH: B1 VH
VL: B2 VL
notes: Fab produced from the yeast IgG1
Kd (cynoPD-1_Fc): 780 pM
Kd (human PD-1_Fc): 630 pM

B9: Antibody D S228P IgG4 (xd-16 D) (antibody, V domains shown)
VH: B1 VH with G56D, S59N, Q65R, I106T
VL: B1 VL
notes: also called xd-16 D (IgG4 S228P); xd-16 D IgG4
EC50 (human PD-1 on cells [3]): 1470 pM

More lines, now with the values ahead:

Kd (cynoPD-1_Fc (cyno)): 470 pM
Molecule: pembrolizumab Fab

Kd (cynoPD-1_Fc): 1200 pM
Kd (human PD-1_Fc): 990 pM
B4: xd-16 D, Fab format produced from IgG1 expressed in yeast (Fab, V domains shown)
VH: B1 VH with G56D, S59N, Q65R, I106T
VL: B2 VL
notes: as for B3

Kd (cynoPD-1_Fc): 1000 pM
Kd (human PD-1_Fc): 860 pM
B5: xd-16 E, Fab format produced from IgG1 expressed in yeast (Fab, V domains shown)
VH: B1 VH with S59N, Q62R
VL: B2 VL
notes: as for B3

MFI (PD-L2-FITC) (human PD-1 on cells [6]): 26500 MFI
Kd [7]: 50 pM
Kd [8]: 2.5 pM
Kd (human PD-1_His): 380 pM
B6: xd-16 C, IgG1 format expressed in yeast (antibody, V domains shown)
VH: B1 VH with Q65R, I106T
VL: B2 VL
notes: Tested as IgG1 expressed in yeast; also called Antibody C

MFI (PD-L2-FITC) (human PD-1 on cells [6]): 40000 MFI
Kd [7]: 93 pM
Kd [8]: 1.3 pM
Kd (human PD-1_His): 650 pM
B7: xd-16 D, IgG1 format expressed in yeast (antibody, V domains shown)
VH: B1 VH with G56D, S59N, Q65R, I106T
VL: B2 VL
notes: Tested as IgG1 expressed in yeast; also called Antibody D

Kd (cynoPD-1_Fc): 730 pM
Kd (human PD-1_Fc): 570 pM
B8: xd-16 C, Fab format produced from IgG1 expressed in yeast (Fab, V domains shown)
VH: B1 VH with Q65R, I106T
VL: B2 VL
notes: as for B3

MFI (PD-L2-FITC) (human PD-1 on cells [6]): 40900 MFI
Kd [7]: 150 pM
Kd [8]: ~0.9 pM
Kd (human PD-1_His): 560 pM
B10: xd-16 E, IgG1 format expressed in yeast (antibody, V domains shown)
VH: B1 VH with S59N, Q62R
VL: B2 VL
notes: Tested as IgG1 expressed in yeast; also called Antibody E
